Values of other authors, collected in article PMC6188814.
pKd: −log10 of the molar value.

Target: ALDH7A1 (Homo sapiens) (UniProt P49419)
Experiment: analytical ultracentrifugation

pKd: 4.80
Substance: ALDH7A1 (from UniProt P49419)
